From patent US6867003

Target: insulin receptor partially purified from CHO-IR cells (Chinese Hamster Ovary cells expressing high levels of insulin receptors of human origin) (human) (UniProt P06213)
Experiment: cell-based or functional assay

Sequence of GST-rGrb14 (O88900 whole entry): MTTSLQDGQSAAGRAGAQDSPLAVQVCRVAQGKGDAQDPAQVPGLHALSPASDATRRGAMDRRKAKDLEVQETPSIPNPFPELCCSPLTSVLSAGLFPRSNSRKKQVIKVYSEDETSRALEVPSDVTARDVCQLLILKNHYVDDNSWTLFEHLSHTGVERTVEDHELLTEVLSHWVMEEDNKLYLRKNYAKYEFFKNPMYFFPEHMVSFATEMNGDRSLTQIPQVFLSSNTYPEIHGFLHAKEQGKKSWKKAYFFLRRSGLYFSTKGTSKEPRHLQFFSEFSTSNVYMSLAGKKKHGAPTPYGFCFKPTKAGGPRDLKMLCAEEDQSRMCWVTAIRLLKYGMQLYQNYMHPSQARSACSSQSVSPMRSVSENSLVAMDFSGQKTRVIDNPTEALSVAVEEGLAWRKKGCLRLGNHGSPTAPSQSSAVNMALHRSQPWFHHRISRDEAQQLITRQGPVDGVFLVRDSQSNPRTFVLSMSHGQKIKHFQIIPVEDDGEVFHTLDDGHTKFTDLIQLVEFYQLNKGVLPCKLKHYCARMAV
Sequence of GST-PIR+SH2 of rGrb14 (O88900 353-538): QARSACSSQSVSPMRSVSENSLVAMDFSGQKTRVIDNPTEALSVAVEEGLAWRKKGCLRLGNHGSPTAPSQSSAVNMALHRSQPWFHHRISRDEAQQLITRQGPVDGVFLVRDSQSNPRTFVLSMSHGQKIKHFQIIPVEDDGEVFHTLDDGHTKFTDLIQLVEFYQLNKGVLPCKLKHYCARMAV

GST-PIR of rGrb14 (from UniProt O88900 353-436)
amount giving total inhibition of the tyrosine kinase activity of the insulin receptors: 0.3 µg

GST-PIR+SH2 of rGrb14 (from UniProt O88900 353-538)
amount giving the maximum inhibitory effect on the tyrosine kinase activity of the insulin receptors: 0.03 µg

GST-rGrb7 (from UniProt Q9QZC5 1-535)
maximum inhibition of the tyrosine kinase activity of the insulin receptors: 40%

GST-rGrb14 (from UniProt O88900 1-538)
amount giving 50% inhibition of the tyrosine kinase activity of the receptors (32P incorporation into poly Glu-Tyr): 0.04 µg
